Reference: patent US20200199207A1 (MABYLON, published 2020)
Substitutions are numbered along the chain they refer to.

B1: h12G10 (antibody, human IgG1, V domains shown)
VH: EVQLLESGGRLLRPGGSLSLSCVASGFYFGDFGMSWVRQVPGKGLEWVSGIDWSGRSTGYVDSMKGRLTISRDNDKSSLYLQMNDLRGEDTAVYYCARVGRLCSGDSCDSMGAFDLWGQGTMVTVSS
VL: DIQLTQSPSTLSASIGDSVTITCRASQNIDNWLAWYQQKPGKAPRLLIYKASSLGSGVSSKFRGSGFGTEFTLTITSLQPDDFATYYCQKSNGYSRTFGQGTKVDIK
notes: Recombinant human IgG; also called hMAb 12G10
B2: h37D5 (antibody, V domains shown)
VH: EEQLVESGGRLLRPGESLSLSCAAVGFNFGDFGMAWVRQPPGKGLEWVAGINWSGHSTGFVDSMKGRLTISRDSAKSSLFLQMNSLRGEDTAVYYCARVGRLCSGDICDSMGAFDLWGQGTMVTVSS
VL: B1 VL with L4M, S18R, N28T, K39R, R45K, K50Q, G55Q, K61R, F67S, D105E
notes: Recombinant human IgG; also called hMAb 37D5
B3: h32B10 (antibody, V domains shown)
VH: QVQLVQSGAEVKKPGASVKVSCRASGYIFRNFDINWVRQATGQGLEWMGWMSPKSGDTGYAQKFQGRVTMTRDTSINTAYMELSSLTSEDSAVYYCARGVDGTNWGQGTRVTVSS
VL: DIVMTQSPDSLGVSLGERATISCKSSQSILDNSNNKNFIAWFQQKPGQPPKLLIYWASARESGVPDRFSGSGSGTEFTLTINSLQAEDVAVYYCYQYYSTPHTFGQGTKLDLR
notes: Recombinant human IgG; also called hMAb 32B10
B4: h4B2 (antibody, V domains shown)
VH: QVQLQEAGPRLVKPSQTLSVTCTVSGASITIGGYYWSWIRQHPGKGLEWMGYIYSNGRTYYNPSLKSRIAMSIDTSKNQFSLKLTSVTAADTAIYFCAREAWETPLWGQGTLITVSS
VL: DIQMTQSPSSLSASVGDRVTITCQANQDIVNSLNWFQHKPGTAPKVLIYDASKLETGVPSRFSGSGSGTHFTFTISGLQPEDFATYFCQQYENLPHTFGQGTKLEIR
notes: Recombinant human IgG; also called hMAb 4B2
B5: h7G6 (antibody, V domains shown)
VH: QVQLVESGGGVVQPGRSLRLSCAASGIAFNDYTMHWVRRSPDKGLEWVAAISYGGTNKYYADSVKGRFTISRDSSKNTLFLQMDSLRVEDTAVYYCARDSGYRSLLHWGQGTLVTVSS
VL: EIVLTQSPLSLPVTPGEPASISCRSSQSLVHRNGYNYLDWYLQKPGQSPQLLIYMASKRASGVPDRFSGSGSGTEFTLKISRVEAEDVGIYYCMQALQTWTFGQGTKVEVN
notes: Recombinant human IgG; also called hMAb 7G6
B6: h2F8 (antibody, V domains shown)
VH: EVQLVESGGGLVKPGGSLRLSCAASGFIFSDYNMNWVRQAPGKGLEWVSSITRSSRTIYYADSVKGRFTISRDNAKNSLHLQMNSLRDADTAVYYCAREDFDVSTGPYYMDVWGNGTTVIVSS
VL: EIVLTQSPGTLSLSPGERATLSCRASQSVSNMFLVWYQQKPGQAPRLLMYGASTRATDIPDRFSGSGSGTDFTLTISRLEPEDFAVYYCQQNGNSPYTFGQGTKLEIK
notes: Recombinant human IgG; also called hMAb 2F8

target: T1, nAra h 6 (peanut, UniProt Q647G9 22-145); assay: ELISA, antigen-coated plate
T1 construct: Bought natural allergen; also called naturally extracted Ara h 6
T1 sequence (looked up): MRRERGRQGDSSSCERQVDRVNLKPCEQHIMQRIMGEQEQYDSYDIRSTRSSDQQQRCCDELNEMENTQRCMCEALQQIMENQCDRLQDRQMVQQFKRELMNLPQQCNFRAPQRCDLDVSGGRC
Description: (§1) EC50 binding of exemplary anti-peanut antibodies of the present invention to peanut allergens or peanut extract, was determined by ELISA. Serial dilutions of MAbs (from 1000 ng/ml down to 0.0169 ng/ml) were incubated for 2 hours with antigen-coated plates (coating overnight at 4° C. or 1 h at 37° C. with 1 μg/ml antigen in PBS, followed by wash out and blocking with 2% BSA in PBS). The plates were subsequently washed and binding of MAbs was detected with anti-human HRP-conjugated Fc-gamma-specific secondary antibody (Jackson ImmunoResearch, West Grove, Pa., USA). Concentrations of MAb resulting in half of maximal binding to respective antigens (EC50, ng/ml) were calculated using GraphPad Prism 5 software on sigmoidal dose-response curves (variable slope, 4 parameters) obtained by plotting the log of the concentration versus OD450 nm measurements; for the results see FIG. 3 and table 2.

Binder	EC50 [ng/mL]
B1	17.2
B2	22.1
B3	7
B4	7
B5	2.6
B6	3.4

target: T2, nAra h 2 (peanut, UniProt Q6PSU2 22-172); assay: ELISA, antigen-coated plate
T2 construct: Bought natural allergen; also called naturally extracted Ara h 2
T2 sequence (looked up): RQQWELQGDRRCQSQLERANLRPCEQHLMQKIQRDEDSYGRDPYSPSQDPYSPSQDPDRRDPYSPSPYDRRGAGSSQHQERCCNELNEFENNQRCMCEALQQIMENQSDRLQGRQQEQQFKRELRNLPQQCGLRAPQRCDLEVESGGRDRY
Description: as §1

Binder	EC50 [ng/mL]
B1	6.8
B2	5.6
B3	9.2
B4	6.7
B5	4.7
B6	5.6

target: T3, nBet v 1 (UniProt P15494 2-160); assay: ELISA, antigen-coated plate
T3 sequence (looked up): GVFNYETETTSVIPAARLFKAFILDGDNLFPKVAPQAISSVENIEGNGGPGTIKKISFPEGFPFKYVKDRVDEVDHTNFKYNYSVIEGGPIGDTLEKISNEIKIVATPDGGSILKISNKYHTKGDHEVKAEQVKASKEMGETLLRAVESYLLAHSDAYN
Description: as §1

Binder	binding result
B1	no binding (tested: 1000 ng/ml)
B2	no binding (tested: 1000 ng/ml)
B3	no binding (tested: 1000 ng/ml)
B4	no binding (tested: 1000 ng/ml)
B5	no binding (tested: 1000 ng/ml)
B6	no binding (tested: 1000 ng/ml)

target: T4, nAra h 3 (peanut); assay: ELISA, antigen-coated plate
T4 construct: Bought natural allergen; also called naturally extracted Ara h 3
Description: as §1

Binder	EC50 [ng/mL]
B1	33.7
B2	65.2
B3	4.9
B5	1.3
B6	2.8

target: T5, nAra h 1 (peanut, UniProt P43238 85-626); assay: ELISA, antigen-coated plate
T5 construct: Bought natural allergen; also called naturally extracted Ara h 1
T5 sequence (looked up): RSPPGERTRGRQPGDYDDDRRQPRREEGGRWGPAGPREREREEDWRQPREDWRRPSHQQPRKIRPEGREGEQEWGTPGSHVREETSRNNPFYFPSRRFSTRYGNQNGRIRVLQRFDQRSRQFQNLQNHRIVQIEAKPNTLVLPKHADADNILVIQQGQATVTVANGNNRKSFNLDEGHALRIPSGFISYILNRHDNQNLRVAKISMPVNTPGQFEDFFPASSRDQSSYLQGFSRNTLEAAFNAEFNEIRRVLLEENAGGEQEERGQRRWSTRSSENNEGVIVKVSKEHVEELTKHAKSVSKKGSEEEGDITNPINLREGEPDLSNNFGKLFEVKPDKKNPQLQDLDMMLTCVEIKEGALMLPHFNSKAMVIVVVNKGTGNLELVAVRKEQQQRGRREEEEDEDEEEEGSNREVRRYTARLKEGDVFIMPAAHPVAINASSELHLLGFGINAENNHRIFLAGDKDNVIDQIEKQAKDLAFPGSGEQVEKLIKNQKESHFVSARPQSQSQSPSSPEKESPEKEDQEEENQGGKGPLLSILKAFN
Description: as §1

Binder	EC50 [ng/mL]
B1	242
B2	264
B3	8.8
B4	5.9
B5	1.9
B6	8.5

target: T6, Ara h 2 (peanut, UniProt Q6PSU2 22-172); assay: competition ELISA on coated Ara h 2; competitor: Patient D serum IgE
T6 construct: also called full length Ara h 2
T6 sequence (looked up): T2 sequence (looked up)
Description: (§2) Microplates were coated with […] of Ara h 1, Ara h 2, Ara h 3, or Ara h 6, overnight at 4° C. After washing with PBS-Tween 0.05% and blocking with 2% BSA, plates were incubated with increasing concentrations of peanut human IgG antibodies for 1 h at room temperature. Subsequently, plates were incubated with different sera dilutions or different concentrations of murine antibody (as positive control). IgE levels were detected using anti-human HRP-conjugated Fc-epsilon-specific secondary antibody (Abcam, Cambridge, UK) followed by addition of TMB solution (TMB, Sigma, Buchs, Switzerland). Binding of murine antibodies was detected using goat anti-mouse IgG (H+L)-HRP (Jackson ImmunoResearch, West Grove, Pa., USA).

Binder	% inhibition of IgE binding [%]
B1	35.7
B2	35.5
B3	8.5
B4	9.23

target: T6, Ara h 2; assay: competition ELISA on coated Ara h 2; competitor: Patient B serum IgE
Description: as §2

Binder	% inhibition of IgE binding [%]
B1	31.2
B2	29.6
B3	26.7
B4	30.6

target: T6, Ara h 2; assay: competition ELISA on coated Ara h 2; competitor: Patient C serum IgE
Description: as §2

Binder	% inhibition of IgE binding [%]
B1	53.8
B2	~55.1
B3	21
B4	13.3

target: T6, Ara h 2; assay: competition ELISA on coated Ara h 2; competitor: Patient G serum IgE
Description: as §2

Binder	% inhibition of IgE binding [%]
B1	25.7
B2	45.3
B3	32.8
B4	31.8

target: T6, Ara h 2; assay: competition ELISA on coated Ara h 2; competitor: Patient A serum IgE
Description: as §2

Binder	% inhibition of IgE binding [%]
B1	13.8
B2	27.8
B3	27.8
B4	39.7

target: T6, Ara h 2; assay: competition ELISA on coated Ara h 2; competitor: Patient E serum IgE
Description: as §2

Binder	% inhibition of IgE binding [%]
B1	36.2
B2	29.3
B3	29.3
B4	21.9

target: T6, Ara h 2; assay: competition ELISA on coated Ara h 2; competitor: Patient F serum IgE
Description: as §2

Binder	% inhibition of IgE binding [%]
B1	45.3
B2	36.2
B3	23.1
B4	30.8

target: T6, Ara h 2; assay: competition ELISA on coated Ara h 2; control: Healthy donor serum
Description: as §2

Binder	% inhibition of IgE binding [%]
B1	0
B2	2.27
B3	0
B4	0
